Test results from the supplement of paper PMC10126150.
± gives the standard deviation of the averaged measurements.

Test system: ATP
Assay: switch fluorescence ratio, 500 uM ATP over buffer (Cy3 cluster intensity, sum of 5 cycles each) (fold (ratio)); higher = stronger signal-on switching upon ATP binding; sequences stand for … in TCGTCGGCAGCGTCAGATGTGTATAAGAGACAGTTTTTTTTTTTTTTTTTTTTTTTTT…TC
Conditions: aptamer strand: ATP DNA aptamer (quencher-CACCTGGGGGAGTATTGCGGAGGAAGG + anchor), 100 nM annealed; ATP concentration: 500 uM
Summary of the method: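 Clusters with intensities outside 100-1000 RFU were excluded. The remaining Cy3-labelled switching-strand clusters on a modified Illumina MiSeq flow-cell had been annealed to 100 nM quencher-labelled ATP aptamer and imaged in selection buffer, then after 15 min with 500 uM ATP at 22 °C, for five cycles separated by NaOH stripping and re-annealing. The fluorescence ratio, averaged per switch-domain sequence, is each cluster's summed target-cycle Cy3 intensity over its summed buffer-cycle Cy3 intensity.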
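Note: ATP exposure 15 min at 22 °C before imaging.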

| Sequence | switch fluorescence ratio |
| --- | --- |
| AGGGTCGCGT | 0.989 ± 0.034 |
| AGGGTCGGCT | 0.993 ± 0.02 |
| AGGGTCGGGC | 1.027 ± 0.0061 |
| AGGGTCGGTG | 0.98 ± 0.027 |
| AGGGTCTACG | 0.997 ± 0.044 |
| AGGGTCTAGA | 0.978 ± 0.023 |
| AGGGTCTCGT | 1.009 ± 0.0025 |
| AGGGTCTTAG | 1.02 ± 0.049 |
| AGGGTGATAC | 1.61 ± 0.62 |
| AGGGTGGAAG | 0.993 ± 0.038 |
| AGGGTGGGTG | 1.01 ± 0.024 |
| AGGGTGTAGA | 1.016 ± 0.0045 |
| AGGGTGTCCA | 0.973 ± 0.028 |
| AGGGTGTCCG | 1.09 ± 0.054 |
| AGGGTGTGGC | 1.0304 ± 0.00027 |
| AGGGTTAGCT | 0.991 ± 0.02 |
| AGGGTTAGGA | 1.02 ± 0.033 |
| AGGGTTAGTC | 1.03 ± 0.058 |
| AGGGTTATGC | 0.984 ± 0.031 |
| AGGGTTGAGA | 0.985 ± 0.033 |
| AGGGTTGCTG | 1.05 ± 0.074 |
| AGGGTTGGAA | 0.967 ± 0.011 |
| AGGGTTGGAC | 0.9774 ± 0.0057 |
| AGGGTTGGG | 1.03 ± 0.029 |
| AGGGTTGGGA | 0.9962 ± 0.0068 |

| Sequence | switch fluorescence ratio |
| --- | --- |
| AGGGTTGGTG | 1.04 ± 0.077 |
| AGGGTTGTGC | 1.03 ± 0.049 |
| AGGGTTTCAG | 0.98 ± 0.026 |
| AGGGTTTTAC | 1.017 ± 0.0013 |
| AGGGTTTTGA | 0.996 ± 0.054 |
| AGGGTTTTTG | 0.994 ± 0.016 |
| AGGTAATCTT | 0.979 ± 0.016 |
| AGGTACGCTC | 0.99314 ± 0.00048 |
| AGGTACGGCC | 1.03 ± 0.033 |
| AGGTAGCGGC | 0.9911 ± 0.0095 |
| AGGTAGGCGC | 0.98 ± 0.041 |
| AGGTAGGGGG | 0.993 ± 0.019 |
| AGGTATCCAC | 1.03 ± 0.035 |
| AGGTATGCAG | 0.9983 ± 0.0044 |
| AGGTATGGTC | 0.995 ± 0.031 |
| AGGTATTTTT | 1.009 ± 0.0042 |
| AGGTCACGGC | 1 ± 0.034 |
| AGGTCAGAGA | 1 ± 0.028 |
| AGGTCATCGA | 1.004 ± 0.0064 |
| AGGTCCCTGT | 1.01 ± 0.042 |
| AGGTCCGGAA | 1.14 ± 0.017 |
| AGGTCGGGTA | 0.979 ± 0.038 |
| AGGTCGTGTT | 0.992 ± 0.01 |
| AGGTCTAATG | 1.01 ± 0.03 |
| AGGTCTGAAA | 1.04 ± 0.042 |

| Sequence | switch fluorescence ratio |
| --- | --- |
| AGGTGAAGGT | 1.01 ± 0.0035 |
| AGGTGAGAAT | 1.16 ± 0.035 |
| AGGTGATACG | 1.06 ± 0.054 |
| AGGTGCAATT | 1.47 ± 0.54 |
| AGGTGCCAG | 0.96208 ± 0.00094 |
| AGGTGGGCGC | 0.94 ± 0.07 |
| AGGTGGGGAC | 1.01 ± 0.014 |
| AGGTGGGGTC | 0.984 ± 0.016 |
| AGGTGGTTG | 0.998 ± 0.028 |
| AGGTGTAAGG | 1.01 ± 0.051 |
| AGGTGTTAAA | 0.9941 ± 0.0033 |
| AGGTGTTATG | 1.03 ± 0.051 |
| AGGTGTTGCG | 1.016 ± 0.0056 |
| AGGTTAATAG | 0.996 ± 0.012 |
| AGGTTAATCT | 1.01 ± 0.018 |
| AGGTTACTCC | 1.07 ± 0.032 |
| AGGTTAGTTT | 0.985 ± 0.018 |
| AGGTTCAAAT | 0.996 ± 0.044 |
| AGGTTCAACG | 1.01 ± 0.028 |
| AGGTTCACTA | 1.01 ± 0.06 |
| AGGTTCGATC | 1.02 ± 0.043 |
| AGGTTGCAGC | 0.992 ± 0.032 |
| AGGTTGCAGT | 1.01 ± 0.077 |
| AGGTTGCGGG | 1 ± 0.014 |
| AGGTTGGACT | 0.99145 ± 0.00056 |

| Sequence | switch fluorescence ratio |
| --- | --- |
| AGGTTGGCTT | 0.96006 ± 0.0007 |
| AGGTTGTACT | 0.968 ± 0.016 |
| AGGTTGTGGC | 0.992 ± 0.033 |
| AGGTTGTGTC | 0.979 ± 0.047 |
| AGGTTGTTGG | 0.966 ± 0.016 |
| AGGTTTAAAC | 1.06 ± 0.063 |
| AGGTTTAGTC | 0.9945 ± 0.0026 |
| AGGTTTATAT | 0.999 ± 0.016 |
| AGGTTTGGGC | 0.997 ± 0.061 |
| AGGTTTTATA | 0.9919 ± 0.0094 |
| AGGTTTTGAT | 1.01 ± 0.019 |
| AGGTTTTGTT | 0.964 ± 0.017 |
| AGGTTTTTCG | 1.03 ± 0.03 |
| AGTAAAAGCG | 1.04 ± 0.017 |
| AGTAAATTTG | 0.9918 ± 0.0076 |
| AGTAACATAT | 0.993 ± 0.012 |
| AGTAACCAAG | 1.01 ± 0.037 |
| AGTAAGAGCA | 1.01 ± 0.011 |
| AGTAAGATCA | 0.992 ± 0.025 |
| AGTAAGGCTC | 1.14 ± 0.061 |
| AGTAAGGGGA | 1.08 ± 0.045 |
| AGTAATACGG | 1.3 ± 0.29 |
| AGTAATATTT | 1.03 ± 0.0061 |
| AGTAATGGGT | 0.996 ± 0.017 |
| AGTAATGGTT | 1.01 ± 0.014 |
